Laboratory results reported in PMC2877039 (Developmental cell, 2010).

T1: His6-tagged full-length Sec15 protein (yeast, UniProt P22224 1-910)
T1 sequence (looked up): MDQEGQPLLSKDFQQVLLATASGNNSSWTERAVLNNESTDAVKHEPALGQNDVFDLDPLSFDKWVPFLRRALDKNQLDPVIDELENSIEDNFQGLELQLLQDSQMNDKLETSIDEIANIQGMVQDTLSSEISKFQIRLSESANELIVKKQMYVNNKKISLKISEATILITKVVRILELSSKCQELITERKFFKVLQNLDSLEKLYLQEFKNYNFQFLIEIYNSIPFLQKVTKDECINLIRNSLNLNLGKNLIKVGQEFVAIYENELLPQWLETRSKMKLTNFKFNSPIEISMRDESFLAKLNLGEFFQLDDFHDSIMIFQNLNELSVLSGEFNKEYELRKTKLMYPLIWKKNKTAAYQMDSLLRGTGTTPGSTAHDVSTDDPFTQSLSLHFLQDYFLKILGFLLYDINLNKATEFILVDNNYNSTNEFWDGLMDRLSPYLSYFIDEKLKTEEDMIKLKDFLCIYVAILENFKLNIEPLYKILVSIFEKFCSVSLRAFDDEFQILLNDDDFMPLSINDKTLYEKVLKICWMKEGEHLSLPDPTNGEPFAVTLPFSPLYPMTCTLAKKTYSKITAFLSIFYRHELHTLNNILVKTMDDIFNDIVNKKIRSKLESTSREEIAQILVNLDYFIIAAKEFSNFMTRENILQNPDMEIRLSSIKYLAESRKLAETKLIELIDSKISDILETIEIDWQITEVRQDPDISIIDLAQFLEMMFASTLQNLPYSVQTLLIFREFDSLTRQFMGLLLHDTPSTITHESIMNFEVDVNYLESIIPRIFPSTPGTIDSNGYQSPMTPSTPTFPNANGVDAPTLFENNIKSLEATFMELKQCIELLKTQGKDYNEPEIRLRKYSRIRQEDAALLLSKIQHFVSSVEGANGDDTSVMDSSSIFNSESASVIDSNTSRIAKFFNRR

B1: GST-Sec2p (wild type) (natural protein, yeast, UniProt P17065 1-759, looked up)
chain: MDASEEAKRVSIQVTSLSTQLIESVDKQSHLEEQLNKSLKTIASQKAAIENYNQLKEDYNTLKRELSDRDDEVKRLREDIAKENELRTKAEEEADKLNKEVEDLTASLFDEANNMVADARKEKYAIEILNKRLTEQLREKDTLLDTLTLQLKNLKKVMHSLDNESTVTNNSNRYSTILSDSATSSSTSLNKVPTSYSLASQDIYSGIVYSPSISSIRYDISLYNEFLKFVAALPRCENIKATSTESKLIRRLVNDEIQPILKIDNASGIGWLVKKTLLSLIIDGLVVVEPLSGVNATYQIGYNSSSPAKQATSNMPKMFKFPLDSPPVAVHAACSFCGESRDDIIEHARMYILKTLHKTDDGKEQVTNTYPLCHWCLLKLRQTCEIFAFLRSLKVGAWHLEKLTTQNITKEDLEKFSEVTKHTKRDGRVSSQDKKTKRLSFMAGLGINSSTKNKPKMEIFSSETNAKPGQPTTNIQRAWLQLCKLRCILHWTHIGIWAVDDSISSKIGPLVEDDSDEDQNDAISVRLQDKALWKQDAKRPFSSSSAEESQKSDAFDFESGDMENEITGESSSDESSSDGSSTDNSTADSSSEDESSLADSTTSSADSSSPESIDNGEGDDTVTKDDKSSIKSANNNEENSDCGDKKGRSIIKKKAPQRKIQKKKLLQDLDDLEEQFREESAIDQTEFENAESNVKQNISSKRASSGDENSKKDNNEKTLKTNLTIGDKTQEQIGENSPSSGLHASSSNDDNFDDAQEQQ

Assays:
GST-Sec2p (wild type) = target: B1; test: pull-down
[1] = target: T1, His6-tagged full-length Sec15 protein; test: pull-down

| Binder | binding result (GST-Sec2p (wild type)) | binding result [1] |
| --- | --- | --- |
| Sec15p C-terminal fragment (a.a. 559–910) (domain or fragment, yeast, UniProt P22224 559-910, looked up) MTCTLAKKTYSKITAFLSIFYRHELHTLNNILVKTMDDIFNDIVNKKIRSKLESTSREEIAQILVNLDYFIIAAKEFSNFMTRENILQNPDMEIRLSSIKYLAESRKLAETKLIELIDSKISDILETIEIDWQITEVRQDPDISIIDLAQFLEMMFASTLQNLPYSVQTLLIFREFDSLTRQFMGLLLHDTPSTITHESIMNFEVDVNYLESIIPRIFPSTPGTIDSNGYQSPMTPSTPTFPNANGVDAPTLFENNIKSLEATFMELKQCIELLKTQGKDYNEPEIRLRKYSRIRQEDAALLLSKIQHFVSSVEGANGDDTSVMDSSSIFNSESASVIDSNTSRIAKFFNRR | binds |  |
| B1 |  | binds |
